{"source": "patent US20070172423A1", "about": "“Composition and method for modulating vasculogenesis for angiogenesis” (priority 1998, published 2007)", "key": {"[1]": {"system": "hSMC", "test": "Cell migration assay, hSMC", "type": "cell-based, human", "details": "wounded monolayer, 20 hours", "experimental": "Cell migration assays were performed on growth arrested confluent HMVEC, BAEC or hSMC cells. Cell monolayers were wounded with a rubber policeman and washed with serum-free medium. Dishes were then incubated for 20 hours in serum-free medium containing VEGF165, PDGF-AA, (R&D Systems, Minneapolis USA) or PDGF-CC. Each assay included two dishes per condition and was repeated three times independently. Cells were photographed at 40× magnification, and migration percentage corresponding to the ratio between area of the cells and the total area of the wound (Biocom visiol@b 2000 version 4.52, San Diego). […] After 7 days, viable cells were counted using the cell Titer-glo luminescent cell viability assay. […] Two days later, cell numbers were counted and proliferation percentage calculated, using cells cultured in medium containing 10% serum as control. […] Aortic rings were analysed at day 9 of culturing. […]\nThe mitogenic and chemotactic effect of PDGF-CC was then tested on SMCs and perivascular fibroblast cells, and the effect of PDGF-CC was compared to that of VEGF and PDGF-AA in both cultured cells and the aortic ring assay (Blacher et al., Angiogenesis, 2001 4:133-42). […] In the aortic ring assay, we quantified the growth and emigration of perivascular fibroblasts from the intact vessel using computer-assisted image analysis after treatment with VEGF and different PDGFs at different concentrations. […]"}, "[2]": {"molecular_target": "PDGF beta receptors (Homo sapiens, UniProt P09619)", "sequence (P09619 33-1106)": "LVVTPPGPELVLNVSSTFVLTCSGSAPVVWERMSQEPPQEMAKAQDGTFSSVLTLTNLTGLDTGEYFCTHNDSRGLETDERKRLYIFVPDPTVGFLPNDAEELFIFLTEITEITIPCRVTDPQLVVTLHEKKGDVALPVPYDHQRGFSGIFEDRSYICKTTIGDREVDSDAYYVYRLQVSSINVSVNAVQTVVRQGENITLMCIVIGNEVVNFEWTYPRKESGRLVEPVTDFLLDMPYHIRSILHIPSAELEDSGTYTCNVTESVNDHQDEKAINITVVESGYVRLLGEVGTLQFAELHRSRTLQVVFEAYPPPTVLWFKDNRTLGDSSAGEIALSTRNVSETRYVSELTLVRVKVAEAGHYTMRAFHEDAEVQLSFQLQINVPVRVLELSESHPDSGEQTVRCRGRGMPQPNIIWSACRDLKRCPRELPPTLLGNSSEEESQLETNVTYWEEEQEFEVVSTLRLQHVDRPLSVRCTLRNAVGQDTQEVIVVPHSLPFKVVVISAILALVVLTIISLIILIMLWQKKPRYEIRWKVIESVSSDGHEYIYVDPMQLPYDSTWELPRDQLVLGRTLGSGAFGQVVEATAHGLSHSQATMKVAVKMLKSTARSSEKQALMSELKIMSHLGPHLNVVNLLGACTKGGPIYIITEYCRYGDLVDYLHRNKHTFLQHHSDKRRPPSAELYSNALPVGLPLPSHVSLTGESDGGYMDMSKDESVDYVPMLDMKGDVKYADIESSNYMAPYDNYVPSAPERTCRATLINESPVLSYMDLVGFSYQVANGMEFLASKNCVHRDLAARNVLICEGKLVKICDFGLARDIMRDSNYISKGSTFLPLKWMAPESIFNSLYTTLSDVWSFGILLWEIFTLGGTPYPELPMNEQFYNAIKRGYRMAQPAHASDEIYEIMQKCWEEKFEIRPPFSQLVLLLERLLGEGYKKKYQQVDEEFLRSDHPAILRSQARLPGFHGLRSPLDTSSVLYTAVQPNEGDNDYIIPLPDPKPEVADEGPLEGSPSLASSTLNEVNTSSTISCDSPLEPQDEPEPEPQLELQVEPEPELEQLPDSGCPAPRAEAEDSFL", "test": "Binding of radiolabeled truncated PDGF-C to PAE-1 cells expressing PDGF beta receptors", "design": "expressed in transfected cells; host or cells: porcine aortic endothelial (PAE-1) cells", "details": "125I-labeled protein, on ice 90 minutes", "experimental": "To assess the interactions between truncated PDGF-C and the PDGF alpha and beta receptors, truncated PDGF-C was tested for its capacity to bind to porcine aortic endothelial-1 (PAE-1) cells expressing PDGF alpha or beta receptors, respectively (Eriksson et al., EMBO J, 1992 11:543-550). The binding experiments were performed essentially as described in Heldin et al. (EMBO J, 1988 7:1387 1393). Five micrograms of truncated PDGF-C protein in ten microliters of sodium borate buffer was radiolabeled using the Bolton-Hunter reagent (Amersham) to a specific activity of 4×10^5 cpm/ng. Different concentrations of radiolabeled truncated PDGF-C, with or without added unlabeled protein, in binding buffer (PBS containing 1 mg/ml of bovine serum albumin) was added to the receptor expressing PAE-1 cells plated in 24-well culture dishes on ice for 90 minutes. After three washes with binding buffer, cell-bound ^125I-labeled PDGF-C was extracted by lysis of cells in 20 mM Tris-HCl, pH 7.5, 10% glycerol, 1% Triton X-100. The amount of cell-bound radioactivity was determined in a gamma-counter. Non-specific binding was estimated by including a 100-fold molar excess of truncated PDGF-C in some experiments. […] The binding was specific as radiolabeled PDGF-C was quantitatively displaced by a 100-fold molar excess of unlabeled protein."}, "[3]": {"system": "HMVEC", "test": "HMVEC proliferation assay", "type": "cell-based, human", "details": "50 ng/ml, 7 days", "experimental": "(§1) Cell migration assays were performed on growth arrested confluent HMVEC, BAEC or hSMC cells. Cell monolayers were wounded with a rubber policeman and washed with serum-free medium. Dishes were then incubated for 20 hours in serum-free medium containing VEGF165, PDGF-AA, (R&D Systems, Minneapolis USA) or PDGF-CC. Each assay included two dishes per condition and was repeated three times independently. Cells were photographed at 40× magnification, and migration percentage corresponding to the ratio between area of the cells and the total area of the wound (Biocom visiol@b 2000 version 4.52, San Diego). For HMVEC proliferation assay, cells were seeded in 96-well plates (5 wells per condition), and incubated with VEGF, PDGF-AA, or PDGF-CC (50 ng/ml) after serum starvation. After 7 days, viable cells were counted using the cell Titer-glo luminescent cell viability assay. For NIH-3T3 and hSMC proliferation assay, cells cultured in 96-well plates were serum-starved overnight, followed by treatment with growth factors at different concentrations. Two days later, cell numbers were counted and proliferation percentage calculated, using cells cultured in medium containing 10% serum as control. Aortic ring assay was performed as described 51. […] Aortic rings were analysed at day 9 of culturing. […]"}, "[4]": {"system": "bovine aorta endothelial cells (BAEC)", "test": "Cell migration assay, BAEC", "type": "cell-based", "details": "wounded monolayer, 20 hours, serum-free medium", "experimental": "as §1"}}}
{"molecule": "PDGF-CC: recombinant human PDGF-CC core domain homodimer, residues 230-345 of full-length PDGF-C (SEQ ID NO:40), produced in baculovirus infected insect cells (protein, homodimer; PDGF-C core domain) GRKSRVVDLNLLTEEVRLYSCTPRNFSVSIREELKRTDTIFWPGCLLVKRCGGNCACCLHNCNECQCVPSKVTKKYHEVLQLRPKTGVRGLHKSLTDVALEHHEECDCVCRGSTGG", "values": [{"measurement": "hSMC migration", "setting": "[1]", "value": "stimulated"}, {"measurement": "binding to beta receptor expressing cells", "setting": "[2]", "value": "not"}, {"measurement": "EC proliferation", "setting": "[3]", "value": "no effect"}, {"measurement": "migration of BAEC", "setting": "[4]", "value": "enhanced"}]}
